This series concerns the molecule itself. The experiment in a line: AUC.

B1: Y137C COA7 pathogenic variant, recombinant, GST-free (natural protein, human)
chain: GPLGSMAGMVDFQDEEQVKSFLENMEVECNYHCYHEKDPDGCYRLVDYLEGIRKNFDEAAKVLKFNCEENQHSDSCYKLGAYYVTGKGGLTQDLKAAARCFLMACEKPGKKSIAACHNVGLLAHDGQVNEDGQPDLGKARDCYTRACDGGYTSSCFNLSAMFLQGAPGFPKDMDLACKYSMKACDLGHIWACANASRMYKLGDGVDKDEAKAEVLKNRAQQLHKEQQKGVQPLTFG
As for B1, the binding result is reported as “binds”.

B2: Cytochrome c oxidase assembly factor 7 (COA7), recombinant, GST-free (natural protein, human)
chain: GPLGSMAGMVDFQDEEQVKSFLENMEVECNYHCYHEKDPDGCYRLVDYLEGIRKNFDEAAKVLKFNCEENQHSDSCYKLGAYYVTGKGGLTQDLKAAARCFLMACEKPGKKSIAACHNVGLLAHDGQVNEDGQPDLGKARDYYTRACDGGYTSSCFNLSAMFLQGAPGFPKDMDLACKYSMKACDLGHIWACANASRMYKLGDGVDKDEAKAEVLKNRAQQLHKEQQKGVQPLTFG
As usually defined, the stoichiometry N is the number of molecules, sites or subunits per partner or assembly. On to B2, for which the “stoichiometry N” value was determined as 2.

The record behind these values is doi:10.1101/2021.06.10.447992 (bioRxiv, 2021).
